Experimental data as given in patent US20040023887A1 (published 2004).

How the values were obtained:
[1] = biological target: T1, soluble IGF-1R (recombinant human IGF-1R extracellular domain, R&D Systems Cat. # 391-GR/CF) (human, UniProt P08069 31-935); experiment: phage ELISA
T1 construct: extracellular domain; Bought protein; coated on plates (phage ELISA, TRF) or Eu-labelled (TR-FRET); also called sIGF-1R; rhIGF-1R

[2] = biological target: T2, soluble human insulin receptor-immunoglobulin heavy chain chimera (human, UniProt P06213 28-956, limits assumed); experiment: phage ELISA
T2 construct: extracellular domain; also called sIR-Fc; IR (prepared according to Bass et al., 1996); not shown: immunoglobulin heavy chain constant domains (Bass et al., 1996)

Binder | ratio over background [1] | ratio over background [2] | IR/IGF-1R ratio comparison [2]
LGYQEPFQQNFYDWFVRQVSGAENAG (on phage) [H2CA-3-E8-IGFR] | 6.3 ratio | 2.2 ratio | 
TSEVQRRSQDNFYDWFVAQVA (on phage) [A6S-3-E2-IR] | 24.7 ratio | 9.8 ratio | 
VGRASGFPENFYDWFGRQLSLQSGEQ (on phage) [M2CA-4-H6-IGFR] | 10.5 ratio | 0.7 ratio | 
RGQSDAFYSGLWALIGLSDG (on phage) [R20β-4-A6-IR] | 25.9 ratio | 1.5 ratio | 
SQAGSAFYAWFDQVLRTVHSA (on phage) [20E2Bβ-4-G6-IR] | 6.2 ratio |  | 
VERSASSQDGNFYDWFVVQIR (on phage) [A6S-2-D1-IR] | 30.6 ratio | 12 ratio | 
QPDHSYFYSLLQELVGSEERL (on phage) [20E2B-4-F9-IGFR] | 14.7 ratio |  | 
RLFYCGIQALGANLGYSGCV (on phage) [R20α-4-20A12-IR] | 39.9 ratio | 2.4 ratio | 
RGCNDDGGKGWSDDPFYHKLSELICGG (on phage) [B6Hα-1-A2-IR] |  | 1 ratio | 
EAASLGSQDRNFYDWFVRQVV (on phage) [A6S-2-D11-IR] | 37.4 ratio | 13.5 ratio | 
YRGMLVLGRSSDGAGKVAFERPARIGQTVFAVNFYDWFV (on phage) [A6L-0-E6-IR] | 31 ratio | 1.8 ratio | 
YRGMLVLGRISGGAGKAASERPARIGQKVSAVNFYDWFV (on phage) [A6L-0-E3-IR] | 26 ratio |  | 
GRTMAVMAAGGPDDPFYHKLSELVQGG (on phage) [B6Hα-2-D6-IR] |  | 1 ratio | 
HLADGQFHEKFYDWFERQISSRCNDC (on phage) [E2CA-3-E11-IGFR] |  | 1 ratio | 
TFYSCLASLLTGTPQPNRGPWERCR (on phage) [20C-3-G3-IGFR] | 32.3 ratio | 1.2 ratio | 
RGAVAGFHDQFYDWFDRQVSRVHKFG (on phage) [H2CA-4-H9-IGFR] | 5.6 ratio |  | 
GFREGSFYDWFQAQVT (on phage) [E4Dα-2-D11-IR] | 11.1 ratio | 3.3 ratio | 
AICDAGFHEHFYDWFALQVSDCGRQS (on phage) [H2CA-2-B11-IGFR] | 4.6 ratio | 1.6 ratio | 0.3 ratio
FRTLAAQHDSFYDWFDRQVSGAAGER (on phage) [H2CA-3-C11-IGFR] | 3.3 ratio | 1.6 ratio | 
RGIVAMVEATEVGSDHDPFYHKLSELVQGS (on phage) [B6Hα-2-C7-IR] |  | 1 ratio | 
FFYDCLAALLQGVARYHDLCAVEIT (on phage) [20C-4-C7-IGFR] | 28 ratio | 1.3 ratio | 
GVRAMSFYDALVSVLGLGPSG (on phage) [20E2B-1-A6-IGFR] | 18.1 ratio | 1.1 ratio | 
